Measured values as given in patent publication US11433139B2, “Peptide vaccines against interleukin-31” (Zoetis Services LLC, priority 2018, dated 2022).
Changes are numbered by the printed parent chain.

B1: ZIL8: fully canine anti IL-31 antibody, VH SEQ ID NO: 79, VL SEQ ID NO: 81 (antibody, listed as Canis familiaris, V domains shown)
VH: EVQLVESGGDLVKPAGSLRLSCVASGFTFSDYAMSWVRQAPGRGLQWVAGIDSVGSGTSYADAVKGRFTISRDDAKNTLYLQMFNLRAEDTAIYYCASGFPGSFEHWGQGTLVTVSS
VL: QSVLTQPASVSGSLGQKVTISCTGSSSNIGSGYVGWYQQLPGTGPRTLIYYNSDRPSGVPDRFSGSRSGTTATLTISGLQAEDEADYYCSVYDRTFNAVFGGGT
B2: ZIL159: fully canine anti IL-31 antibody, VH SEQ ID NO: 103, VL SEQ ID NO: 105 (antibody, listed as Canis familiaris, V domains shown)
VH: EVQLVESGGDLVKPAGSLRLSCVASGFTFSSYVMTWVRQAPGKGLQWVAGINSEGSRTAYADAVKGRFTISRDNAKNTLYLQIDSLRAEDTAIYYCATGDIVATGTSYWGQGTLVTVSS
VL: SNVLTQPPSVSVSLGQTATISCSGETLNRFYTQWFQQKAGQAPVLVIYKDTERPSGIPDRFSGSSSGNIHTLTISGARAEDEAAYYCKSAVSIDVGVFGGGTHLTVF
B3: ZIL69: fully canine anti IL-31 antibody, VH SEQ ID NO: 91, VL SEQ ID NO: 93 (antibody, listed as Canis familiaris, V domains shown)
VH: EVQLVESGGDLVKPAGSLRLSCVASGFTFSSYAMKWVRQAPGKGLQWVATINNDGTRTGYADAVRGRFTISKDNAKNTLYLQMDSLRADDTAVYYCTKGNAESGCTGDHCPPYWGQGTLVTVSS
VL: SSVLTQPPSVSVSLGQTATISCSGESLNKYYAQWFQQKAGQAPVLVIYKDTERPSGIPDRFSGSSAGNTHTLTISGARAEDEADYYCESAVSSETNVFGSGTQLTVL
B4: ZIL94: fully canine anti IL-31 antibody, VH SEQ ID NO: 95, VL SEQ ID NO: 97 (antibody, listed as Canis familiaris, V domains shown)
VH: EVQLVDSGGDLVKPGGSLRLSCVASGFTFSTYFMSWVRQAPGRGLQWVALISSDGSGTYYADAVKGRFTISRDNAKNTLYLQMNSLRAEDTAMYYCAIFWRAFNDWGQGTLVTVSS
VL: QTVVIQEPSLSVSPGGTVTLTCGLNSGSVSTSNYPGWYQQTRGRTPRTIIYDTGSRPSGVPNRFSGSISGNKAALTITGAQPEDEADYYCSLYTDSDILVFGGGTHLTVL
B5: ZIL171: fully canine anti IL-31 antibody, VH SEQ ID NO: 107, VL SEQ ID NO: 109 (antibody, listed as Canis familiaris, V domains shown)
VH: EVQLVESGGDLVKPAGSLRLSCVASGFTFRTYVMNWVRQAPGKGLQWVASINGGGSSPTYADAVRGRFTVSRDNAQNSLFLQMNSLRAEDTAIYFCVVSMVGPFDYWGHGTLVTVSS
VL: B3 VL with E25K, N28S, K29Y, A66S, E94D, N96I, S100G, Q103H

What follows are molecules tested on feline 11E12 mutant IL-31 (assay: Biacore binding, single test concentration of antibody, feline 11E12 mutant IL-31 surface). Conditions: not given.
feline 11E12 mutant IL-31, sequence (as listed by the source, stated change not applied): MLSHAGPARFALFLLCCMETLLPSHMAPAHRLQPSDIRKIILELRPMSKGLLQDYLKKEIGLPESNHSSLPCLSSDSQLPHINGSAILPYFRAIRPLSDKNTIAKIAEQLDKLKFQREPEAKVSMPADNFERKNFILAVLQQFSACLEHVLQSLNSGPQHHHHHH
Description: (§1) For the indirect ELISA, binding (ELISA OD) to wildtype feline IL-31 and a feline IL-31 15H05 mutant which had mutations in the monoclonal antibody 15H05 epitope region was assessed. To confirm binding, biacore analysis was performed using canine, feline, equine, human, the feline 15H05 mutant, and feline 11E12 mutant IL-31 proteins as surfaces and a single test concentration of antibody. The feline IL-31 11E12 mutant had mutations in the monoclonal antibody 11E12 epitope region.
(§2) For the indirect ELISA method, antibody binding to wildtype and feline IL-31 15H05 mutant proteins was assessed. […] In comparison, the 11E12 antibody bound to the wild-type feline IL-31 and its binding was not impacted by the mutations in the 15H05 epitope region as evidenced by the data in FIG. 4. To confirm binding, biacore analysis was performed using canine, feline, equine, human, feline 15H05 mutant, and feline 11E12 mutant IL-31 proteins as surfaces and a single test concentration of antibody. Similar to ELISA observations, all antibodies tested bound to wildtype feline IL-31. In agreement with the data described above in this section, mouse antibodies 11 E12 and 15H05 both bound to canine and feline IL-31 surfaces. […] From this group of nine fully canine antibodies, only ZIL1 and ZIL9 cross-reacted with equine IL-31. Of note, antibody 15H05 was the only one of all assayed herein that bound to canine, feline, and equine IL-31 indicating some level of epitope conservation across the three species. In contrast, none of the antibodies described herein bound to human IL-31. Additional biacore surfaces were used to verify ELISA observations showing differential binding of antibodies to wildtype feline IL-31 and two proteins with mutations in the 15H05 (15H05 mutant) or 11 E12 (11E12 mutant) epitopes. […] Differing results can be attributed to differences in the two assay methodologies.

Molecule | binding to feline 11E12 mutant IL-31 (Biacore)
B1 | impacted
B2 | impacted

The molecules below were run on feline IL-31 15H05 mutant (assay: Indirect ELISA, binding to feline IL-31 15H05 mutant). Conditions: compared with wildtype.
feline IL-31 15H05 mutant, sequence (as listed by the source, change not shown): as the sequence (as listed by the source, stated change not applied) above, with A104D, A107I, P126A, D128A counted along it
Description: (§3) Mice and dogs were immunized with recombinant canine IL-31 (SEQ ID No. 155) for the purpose of identifying antibodies. Serum antibody titers from immunized animals were determined using an enzyme linked immunosorbent assay (ELISA). Canine or feline IL-31 (50 ng/well) was immobilized to polystyrene microplates and used as a capture antigen. Serum from immunized animals was diluted in phosphate buffered saline with 0.05% tween-20 (PBST). The presence of anti-IL-31 antibodies was detected with an appropriate secondary HRP labeled antibody. Following addition of a chromogenic substrate (SureBlue Reserve TMB 1-Component Microwell Peroxidase Substrate, KPL, Inc., Gaithersburg, Md.) and a ten minute incubation at room temperature (RT) the reaction was stopped with the addition of […] of 0.1 N HCl. The absorbance of each well was determined at an optical density (OD) of 450 nm. Antibodies were selected for their ability to bind canine and feline IL-31 using an ELISA. In some cases, further characterization was performed at the time of selection using an ELISA with a mutant form of the feline IL-31 protein as a capture antigen. Cells producing antibodies with desired binding and inhibitory properties were chosen for sequence analysis of RNA transcripts representing the variable heavy (VH) and variable light (VL) IgG chains.
as §2
(§4) To determine the impact of mAbs 11E12 and 15H05 ability to bind these mutant forms of feline IL-31, an indirect ELISA was run using the mutants directly coated on to an immunoassay plate. […] The minor attenuation of mAb 15H05s binding to the 11E12 mutant is likely due to translational effects of the mutations from movement of the two front helices effecting the 15H05 binding site. The mutations designed to affect mAb 15H05s binding (mutant 15H05) show a complete loss of mAb 1505s ability to bind this IL-31 mutant by ELISA. Unlike the 11E12 mutant, the changes in the random coil recognized by mAb 15H05 (mutant 15H05) had no impact on mAb 11E12 binding further supporting the distinction between the two epitopes (FIG. 6C).

Molecule | binding to feline IL-31 15H05 mutant (ELISA)
B1 | binding was impacted
B3 | binding was impacted
B4 | binding was impacted
B2 | binding was impacted
B5 | binding was impacted

What follows are molecules tested on feline 15H05 mutant IL-31 (assay: Biacore binding, single test concentration of antibody, feline 15H05 mutant IL-31 surface). Conditions: not given.
Description: as §1, §2

Molecule | binding to feline 15H05 mutant IL-31 (Biacore)
B5 | partially affected

What follows are molecules tested on canine IL-31 (assay: Biacore binding, single test concentration of antibody, canine IL-31 surface). Conditions: not given.
canine IL-31, sequence (as listed by the source): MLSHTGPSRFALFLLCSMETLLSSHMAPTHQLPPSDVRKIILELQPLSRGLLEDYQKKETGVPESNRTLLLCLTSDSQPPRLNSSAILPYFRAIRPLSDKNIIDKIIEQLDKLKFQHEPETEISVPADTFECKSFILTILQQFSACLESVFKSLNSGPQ
Description: as §1, §2

Molecule | binding to canine IL-31 (Biacore)
B3 | partial canine binding
B4 | dual binding property
B2 | dual binding property

These molecules were tested on wildtype feline IL-31 (assay: Indirect ELISA, binding to wildtype feline IL-31). Conditions: not given.
wildtype feline IL-31, sequence (as listed by the source): as the sequence (as listed by the source, stated change not applied) above, with A104D, A107I counted along it
Description: as §3, §2, §4

Molecule | binding to wildtype feline IL-31 (ELISA)
B1 | capable of binding
B3 | capable of binding
B4 | capable of binding
B2 | capable of binding
B5 | capable of binding
